Measured values as given in patent US20230183318A1 (published 2023).
Substitutions are numbered along the chain they refer to. In names and notes the source's numbering stands.

B1: glycosylated PD-1 variant JY_Q12-2 (Q34N) (receptor)
chain: LDSPDRPLDPPTISPALLVVTEGDQATFTCSFSNTSKSFVLNWYRISPSQQTDKLAAFPEDRSQPGQDTRFRVTQLPNGRDFHMSVVRARRQDSGTYLCVAISLAPKVQIKESLRAELRVTERRAEVPTAHPSPSPRPACQFQ
modifications: sugar chain at N34 (N-linked glycosylation site restored, expressed in Expi293F)
B2: JY-Q12-4 (protein)
chain: B1 chain with N34Q, Q92N
B3: aglycosylated PD-1 variant Q12 (JY_Q12), soluble His-tagged protein (receptor)
chain: B1 chain with N34Q
B4: glycosylated PD-1 variant JY_Q12-3 (Q50N) (receptor)
chain: B1 chain with N34Q, Q50N
modifications: sugar chain at N50 (N-linked glycosylation site restored, expressed in Expi293F)
B5: glycosylated PD-1 variant JY_Q12-1 (Q25N) (receptor)
chain: B1 chain with Q25N, N34Q
modifications: sugar chain at N25 (N-linked glycosylation site restored, expressed in Expi293F)
B6: Q18 (protein)
chain: LDSPDRPWNPPTISPALLVVTEGDQATFTCGLPQTSESFVLNWYRIGPSQQMDKLAAFPEDRSQPGQDTRFRVTQLPNGRDFHMSVVRARRQDSGTYLCVAISLAPKVQIKESLRAELRVTERRAEVRTAHPSPSPRSAGQFQ
B7: Q10 (protein)
chain: B6 chain with G31S, P33S, G47S, V87D, T96S, R128P, S138P
B8: Q33 (protein)
chain: B1 chain with L8W, D9N, N34R, K37E, R88G, R90Q, C140G

target: T1, PD-L1-streptavidin (UniProt Q9NZQ7 19-238); test: BLI (BLItz)
T1 sequence (Q9NZQ7 19-238): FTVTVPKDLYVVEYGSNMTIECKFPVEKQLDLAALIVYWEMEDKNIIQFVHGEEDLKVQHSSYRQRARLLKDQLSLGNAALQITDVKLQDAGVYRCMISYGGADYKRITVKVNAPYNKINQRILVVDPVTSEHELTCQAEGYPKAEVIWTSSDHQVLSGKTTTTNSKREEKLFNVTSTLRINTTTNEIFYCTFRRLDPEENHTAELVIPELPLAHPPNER

| Binder | Kd [nM] |
| --- | --- |
| B1 | 0.899 |
| B2 | 17.3 |
| B3 | 11 |
| B4 | 3.24 |
| B5 | 7.38 |

target: T1, PD-L1-streptavidin; test: BLI (BLItz); remark: another data set of the same source

| Binder | Kd [nM] |
| --- | --- |
| B6 | 46.9 |
| B7 | 50.1 |
| B3 | 5.49 |
| B8 | 35.1 |

target: T1, PD-L1-streptavidin; test: BLI (BLItz); Fig. 12

| Binder | Kd [nM] |
| --- | --- |
| B3 | 5.49 |
